The Immune Epitope Database (IEDB)

What was measured:
HLA-A*02:01 [1] = assay: IEDB peptide-MHC binding, purified MHC/competitive/fluorescence; filed as Kd, often an IC50 or EC50 that approximates it; ≥ and ≤ were set here for values at or beyond the usual limits of such assays
HLA-A*24:02 = assay: IEDB peptide-MHC binding, purified MHC/competitive/radioactivity; filed as Kd, often an IC50 or EC50 that approximates it; ≥ and ≤ were set here for values at or beyond the usual limits of such assays
HLA-A*26:01 = assay: as above
HLA-A*01:01 = assay: as above
HLA-A*29:02 = assay: as above
HLA-A*23:01 = assay: as above
HLA-A*30:02 = assay: as above
HLA-A*02:01 [2] = assay: IEDB peptide-MHC binding, purified MHC/direct/fluorescence; filed as Kd, often an IC50 or EC50 that approximates it; ≥ and ≤ were set here for values at or beyond the usual limits of such assays
HLA-A*69:01 = assay: as above
HLA-A*02:01 [3] = assay: IEDB peptide-MHC binding, purified MHC/competitive/fluorescence; ≥ and ≤ were set here for values at or beyond the usual limits of such assays
[4] = source organism: SARS coronavirus Tor2
[5] = source organism: Dengue virus 4 Dominica/814669/1981
[6] = source organism: Dengue virus 3 Sri Lanka/1266/2000
[7] = source organism: Aromatoleum aromaticum
[8] = source organism: Mammarenavirus whitewaterense
[9] = source organism: Vibrio vulnificus YJ016
[10] = source organism: Dengue virus 2 Jamaica/1409/1983
[11] = source organism: Zaire ebolavirus
[12] = source organism: Dengue virus 4 Philippines/H241/1956
[13] = source organism: Dengue virus 1 Brazil/97-11/1997
[14] = source organism: Mammarenavirus machupoense
[15] = source organism: Mycobacterium tuberculosis
[16] = source organism: Salmonella enterica subsp. enterica serovar Typhimurium

In the case of KVDTTHVSKV, the Kd (HLA-A*02:01 [1]; source organism: Myxoma virus) is reported as 42.3 nM.
For PYRVVVLSF, the Kd (HLA-A*24:02; [4]) was 100 nM, the Kd (HLA-A*26:01; [4]) was 1040 nM and the Kd (HLA-A*01:01; [4]) was 1480 nM. The Kd (HLA-A*29:02; [4]) was 11500 nM, the Kd (HLA-A*23:01; [4]) was 20.8 nM and the Kd (HLA-A*30:02; [4]) was no less than 93800 nM.
Sequence VMPLSAPTL has a Kd (HLA-A*24:02; [4]) of 13300 nM, a Kd (HLA-A*26:01; [4]) of no less than 77900 nM and a Kd (HLA-A*01:01; [4]) of no less than 78100 nM. It also gave a Kd (HLA-A*29:02; [4]) of 7050 nM, a Kd (HLA-A*23:01; [4]) of 6450 nM and a Kd (HLA-A*30:02; [4]) of no less than 75000 nM.
For MFGGVSWMI, the Kd (HLA-A*24:02; [5]) was 78.3 nM and the Kd (HLA-A*23:01; [5]) was 41.8 nM.
Work on TYQLWTALV yielded a Kd (HLA-A*24:02; [6]) of 48.3 nM and a Kd (HLA-A*23:01; [6]) of 58.3 nM.
In the case of VLEGFEGDL, the Kd (HLA-A*02:01 [2]; [7]) is reported as 17000 nM and the Kd (HLA-A*69:01; [7]) is reported as no less than 20000 nM.
Sequence RQMATTTNPL has a Kd (HLA-A*02:01 [1]; source organism: Influenza A virus (A/parakeet/Chiba/1/97(H9N2))) of 393 nM.
SKIPGGAMY showed a Kd (HLA-A*30:02; source organism: Dengue virus 3 Martinique/1243/1999) of 365 nM.
In the case of LRIPTHRHI, the Kd (HLA-A*24:02; [8]) is reported as no less than 77500 nM, the Kd (HLA-A*26:01; [8]) is reported as no less than 77900 nM and the Kd (HLA-A*01:01; [8]) is reported as no less than 25700 nM. For the same sequence, the Kd (HLA-A*29:02; [8]) was no less than 33700 nM, the Kd (HLA-A*23:01; [8]) was no less than 71500 nM and the Kd (HLA-A*30:02; [8]) was no less than 76900 nM.
With KLTDSLSSQ the IC50 (HLA-A*02:01 [3]; source organism: Vaccinia virus Copenhagen) was 44600 nM.
In the case of NLEGSGVST, the IC50 (HLA-A*02:01 [3]; source organism: Sudan ebolavirus) is reported as 67600 nM.
RQLQREGLV showed a Kd (HLA-A*02:01 [2]; [9]) of no less than 5000 nM and a Kd (HLA-A*69:01; [9]) of no less than 20000 nM.
Sequence DWIPLALTI has a Kd (HLA-A*24:02; [10]) of 16 nM.
With GTDLEGKFY the Kd (HLA-A*24:02; [4]) was no less than 77600 nM, the Kd (HLA-A*26:01; [4]) was no less than 38800 nM and the Kd (HLA-A*01:01; [4]) was 33.4 nM. It also gave a Kd (HLA-A*29:02; [4]) of 273 nM, a Kd (HLA-A*23:01; [4]) of no less than 77800 nM and a Kd (HLA-A*30:02; [4]) of 1390 nM.
GVIHNSTLQ was tested, and the IC50 (HLA-A*02:01 [3]; [11]) was no less than 121000 nM.
RGSGQVGTY showed a Kd (HLA-A*30:02; [10]) of 208 nM.
For ASEAVNDSRF, the Kd (HLA-A*01:01; [12]) was no less than 31400 nM.
IGNENYLDY was tested, and the Kd (HLA-A*30:02; [13]) was 956 nM.
ILDNQGRVV showed a Kd (HLA-A*02:01 [2]; source organism: Venezuelan equine encephalitis virus) of 1210 nM.
Sequence GTTVVKVKY has a Kd (HLA-A*30:02; [12]) of 244 nM.
For RTLLGLILFV, the Kd (HLA-A*02:01 [1]; source organism: Variola virus) was 1270 nM.
NFLEVEDYGF showed a Kd (HLA-A*24:02; [12]) of no less than 31700 nM and a Kd (HLA-A*23:01; [12]) of 54.7 nM.
Work on NNNTHHQDT yielded an IC50 (HLA-A*02:01 [3]; [11]) of no less than 253000 nM.
In the case of EYFMCFKYLL, the Kd (HLA-A*24:02; [14]) is reported as 192 nM, the Kd (HLA-A*29:02; [14]) is reported as 49 nM and the Kd (HLA-A*23:01; [14]) is reported as 9.3 nM.
For AVGIGLRLV, the Kd (HLA-A*02:01 [2]; [15]) was 128 nM and the Kd (HLA-A*69:01; [15]) was no less than 20000 nM.
For EVKQDEDGSF, the Kd (HLA-A*26:01; [12]) was 69.2 nM.
With SEELSFTVV the IC50 (HLA-A*02:01 [3]; [11]) was no less than 145000 nM.
WHLGKLELDF gave a Kd (HLA-A*23:01; [13]) of 296 nM.
For FAHELEMLC, the Kd (HLA-A*02:01 [2]; [16]) was 1170 nM and the Kd (HLA-A*69:01; [16]) was 720 nM.
Work on WTEAKMLLD yielded a Kd (HLA-A*01:01; [13]) of 943 nM.
Sequence TSQVPKLLL has an IC50 (HLA-A*02:01 [3]; source organism: Variola virus) of 47400 nM.
